One molecule from patent publication US20180105596A1 (ELSALYS BIOTECH, published 2018) can be followed below.

The target of assay [1] is T1, recombinant His-Strep tagged human Tyro3 extracellular domain (human, UniProt Q06418 41-429).
T1 construct: also called hTyro3 ECD; full Tyro3 ECD
T1 sequence: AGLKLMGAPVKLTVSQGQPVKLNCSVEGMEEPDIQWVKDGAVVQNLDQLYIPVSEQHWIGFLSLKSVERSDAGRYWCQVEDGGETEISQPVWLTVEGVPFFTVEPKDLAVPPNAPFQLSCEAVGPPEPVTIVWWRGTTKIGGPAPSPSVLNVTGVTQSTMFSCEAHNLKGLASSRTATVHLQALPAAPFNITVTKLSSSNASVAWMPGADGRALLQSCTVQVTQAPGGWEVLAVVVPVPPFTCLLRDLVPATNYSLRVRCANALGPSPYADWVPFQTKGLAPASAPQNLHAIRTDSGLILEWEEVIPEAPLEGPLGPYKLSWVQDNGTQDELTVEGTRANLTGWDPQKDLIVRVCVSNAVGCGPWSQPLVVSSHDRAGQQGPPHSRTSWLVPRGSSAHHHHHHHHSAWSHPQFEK
The experiment in a line: BLI (Octet K2), IgG on AHC tips, hTyro3 ECD analyte, 1:1 global fit; KD Error 4,35E-10. The method, then:
(§1) Affinity determinations were performed using biolayer interferometry on an Octet K2 instrument (Pall/ForteBio) equipped with anti-Human Kinetics (AHC) disposable fiber-optic biosensor tips. All experiments were conducted at 30° C. in the recommended Fortebio running buffer (PBS with 0.1% (w/v) bovine serum albumin (BSA) and 0.02% (v/v) Tween_20). This buffer was also used for dilution of ligand (here the antibody) and of the analyte (here the extra cellular domain of human Tyro3 protein). Samples in a 96-well microplates (No. Black polypropylene low binding plates, Greiner Bio-One, Frickenhausen, Germany) were agitated at 1000 rpm. […] Between measurements, the anti-human Tyro3 biosensor surfaces were regenerated by exposing them to 3 cycles of 5 sec in 10 mM glycine, pH 1.5, followed by 5 sec in PBS. Association phase was measured for 300 seconds, dissociation phase depending on the interaction for 300 seconds depending on dissociation step. […] Affinity, association (kon) and dissociation rate constants (koff) for each antibody were calculated applying a 1:1 interaction model fitting global, Rmax linked by sensor) on the ForteBio data analysis software 9.0.
A general note: Biolayer interferometry detects binding as a change in optical thickness at a sensor tip.

For assay [2], the target named is T1, recombinant His-Strep tagged human …. The assay can be described thus: BLI (Octet K2), 1:1 global fit; analyte concentration of this kobs not given. The method, then:
Affinity determinations were performed using biolayer interferometry on an Octet K2 instrument (Pall/ForteBio) equipped with anti-Human Kinetics (AHC) disposable fiber-optic biosensor tips. All experiments were conducted at 30° C. in the recommended Fortebio running buffer (PBS with 0.1% (w/v) bovine serum albumin (BSA) and 0.02% (v/v) Tween_20). This buffer was also used for dilution of ligand (here the antibody) and of the analyte (here the extra cellular domain of human Tyro3 protein). Samples in a 96-well microplates (No. Black polypropylene low binding plates, Greiner Bio-One, Frickenhausen, Germany) were agitated at 1000 rpm. […] Between measurements, the anti-human Tyro3 biosensor surfaces were regenerated by exposing them to 3 cycles of 5 sec in 10 mM glycine, pH 1.5, followed by 5 sec in PBS. Association phase was measured for 300 seconds, dissociation phase depending on the interaction for 300 seconds depending on dissociation step. All measurements were corrected for baseline drift using the double reference substraction, that is to say by subtracting a control sensor without ligand exposed to each concentration of the extra cellular domain of human Tyro3 protein and a reference well with ligand submitted to running buffer only. Affinity, association (kon) and dissociation rate constants (koff) for each antibody were calculated applying a 1:1 interaction model fitting global, Rmax linked by sensor) on the ForteBio data analysis software 9.0.

For assay [3] the target is unchanged. The experiment in a line: sandwich ELISA, Strep-tagged hTyro3 ECD captured on StrepMAB plate, IgG 3-fold from 3 µg/mL, anti-human IgG1-HRP. As for the experimental part:
(§2) A double sandwich ELISA was developed. This assay consisted in measuring the binding of the anti-Tyro3 antibodies to be tested on immobilized strep-tagged entire human Tyro3 ECD captured directly on ELISA plate pre-coated with an anti-strep mAb (StrepMAB-Immo coated microplates from IBA biotech). Briefly, the 96 wells of StrepMAB-Immo coated microplate were washed three times with 300 μL of the PBS Tween 0.2% (referred as ELISA washing solution). The capture of an excess of purified strep tagged hTyro3 ECD protein was achieved by a one hour incubation at room temperature. In these experiments, 3 μg of purified protein diluted in PBS, BSA 1% (referred as ELISA diluent solution) were immobilized per well. The wells were washed three times with 300 μL of the washing solution. The non-specific binding sites on the well surface were blocked during 60 min at room temperature with 200 μL/well of blocking solution (PBS, BSA 3%). The wells were washed five times with 300 μL of the washing solution. Then, 100 μl (in duplicates) of the different concentrations of anti-Tyro3 antibodies to be tested diluted in ELISA diluent solution, were added per well and allowed to incubate during 1 hour at room temperature. An Irrelevant control IgG2656 was also added in this experiment. For anti-Tyro3 antibodies in the ScFv format, experiments were performed with 6 concentrations in duplicates (FIG. 3A). For anti-Tyro3 antibodies in the IgG format, experiments were performed with 9 concentrations in duplicates (FIG. 3B). […] For IgGs experiments, starting concentration for first dilution was 3 μg/ml and then dilutions of 3 fold in the ELISA diluent solution were performed. The wells were washed five times with 300 μL of the washing solution. […] The mix was allowed to incubated 60 min at room temperature.

Assay [4] deals with T2, cynomolgus Tyro3 ECD, His-Strep tagged.
T2 construct: also called cyno TYRO3 ECD 8hisstrep
T2 extracellular domain: T1 sequence with V67A, I191V, A309G, R376H
The assay can be described thus: sandwich ELISA, Strep-tagged cynomolgus Tyro3 ECD captured on StrepMAB plate, IgG 3-fold from 3 µg/mL, anti-human IgG1-HRP. As for the experimental part:
[The procedure below names another species; the source lists this species under the same test.] as §2
A general note: In an ELISA, binding on a coated surface is turned into a signal by an enzyme label.

Assay [5] concerns the target T1, recombinant His-Strep tagged human …. The experiment in a line: BLI (Octet K2), IgG on AHC tips, hTyro3 ECD analyte, 1:1 global fit; kon Error 1,04E+03. The method, then: as §1
For assay [6] the target is unchanged. The assay can be described thus: BLI (Octet K2), IgG on AHC tips, hTyro3 ECD analyte, 1:1 global fit; kdis(1/s); kdis Error 3,33E-05. The method, then: as §1

Broadly, the Kd is the equilibrium constant for the complex coming apart. By EC50 (read off the curve) is commonly meant the concentration at which the effect is half-maximal. Broadly, the kon is a measure of how fast the partners come together. One may read the koff as a measure of how fast the partners let go of each other.

Numbering of substitutions follows the chain as printed.

B1: IgG2713 (antibody, V domains shown)
VH: EVQLVQSGADVKKPGASLTISCQASGYTFTDYWISWVRQKPGKGLEWMGRISRHGSQTYYGPSFQGHVTISADRSTATAYLQWRSLEASDTAMYYCVRAGGQTSGGTIPEYYQHWGPGTLVTVSS
VL: SYELTQPPSVSVSPGQTARITCSGDALPKKYAYWYQQKSGQAPVLVIYEDHKRASGIPERFSGSSSGTMATLTISGAQVEDEADYYCYSISPAGNYGVFGGGTKLTVL
notes: also called IGX2713
Turning to B1, the Kd in assay [1] is 39.3 nM. Further, the kobs in assay [2] came out at 0.00934 s⁻¹. Moreover, the concentration for a half-maximal effect (EC50 (read off the curve)) in assay [3] is ~0.03 µg/mL. The binding result in assay [4] is “binds”. Further, the on-rate constant (kon) in assay [5] stood at 122000 M⁻¹ s⁻¹. In assay [6], the dissociation rate constant (koff) is 0.00478 s⁻¹.
